Earlier results in article PMC8152036.
pKd: −log10 of the molar value.

What was measured:
Experiment in all cases: SPR
[1] = target: RNase J1 (Bacillus subtilis) (UniProt Q45493)
[2] = target: RNase Y (Bacillus subtilis) (UniProt O31774)
PfkA (Bacillus subtilis) = PfkA (Bacillus subtilis) (UniProt O34529)
UniProt O34529, sequence (O34529 whole entry): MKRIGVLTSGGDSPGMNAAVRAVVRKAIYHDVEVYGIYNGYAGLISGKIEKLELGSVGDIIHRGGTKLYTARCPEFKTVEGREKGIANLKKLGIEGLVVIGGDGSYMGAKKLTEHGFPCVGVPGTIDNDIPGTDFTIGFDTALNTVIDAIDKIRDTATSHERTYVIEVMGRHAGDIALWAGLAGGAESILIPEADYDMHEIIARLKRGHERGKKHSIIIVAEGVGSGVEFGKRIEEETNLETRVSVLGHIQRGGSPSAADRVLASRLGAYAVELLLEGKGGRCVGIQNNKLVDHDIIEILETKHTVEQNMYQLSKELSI

UniProt O31774, sequence (O31774 whole entry): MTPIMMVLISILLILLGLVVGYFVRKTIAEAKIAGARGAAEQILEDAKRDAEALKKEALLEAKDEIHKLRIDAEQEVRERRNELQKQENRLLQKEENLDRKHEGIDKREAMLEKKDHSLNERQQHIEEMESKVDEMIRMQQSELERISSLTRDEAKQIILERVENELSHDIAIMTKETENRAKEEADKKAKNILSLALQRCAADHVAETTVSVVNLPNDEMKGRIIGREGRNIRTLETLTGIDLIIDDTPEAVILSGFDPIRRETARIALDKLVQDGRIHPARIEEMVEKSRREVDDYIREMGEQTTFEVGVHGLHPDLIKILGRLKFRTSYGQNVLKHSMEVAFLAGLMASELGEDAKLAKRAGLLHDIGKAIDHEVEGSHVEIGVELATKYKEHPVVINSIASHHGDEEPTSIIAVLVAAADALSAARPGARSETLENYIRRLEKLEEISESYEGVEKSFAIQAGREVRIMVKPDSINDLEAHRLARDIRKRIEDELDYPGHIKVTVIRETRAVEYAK
UniProt Q45493, sequence (Q45493 whole entry): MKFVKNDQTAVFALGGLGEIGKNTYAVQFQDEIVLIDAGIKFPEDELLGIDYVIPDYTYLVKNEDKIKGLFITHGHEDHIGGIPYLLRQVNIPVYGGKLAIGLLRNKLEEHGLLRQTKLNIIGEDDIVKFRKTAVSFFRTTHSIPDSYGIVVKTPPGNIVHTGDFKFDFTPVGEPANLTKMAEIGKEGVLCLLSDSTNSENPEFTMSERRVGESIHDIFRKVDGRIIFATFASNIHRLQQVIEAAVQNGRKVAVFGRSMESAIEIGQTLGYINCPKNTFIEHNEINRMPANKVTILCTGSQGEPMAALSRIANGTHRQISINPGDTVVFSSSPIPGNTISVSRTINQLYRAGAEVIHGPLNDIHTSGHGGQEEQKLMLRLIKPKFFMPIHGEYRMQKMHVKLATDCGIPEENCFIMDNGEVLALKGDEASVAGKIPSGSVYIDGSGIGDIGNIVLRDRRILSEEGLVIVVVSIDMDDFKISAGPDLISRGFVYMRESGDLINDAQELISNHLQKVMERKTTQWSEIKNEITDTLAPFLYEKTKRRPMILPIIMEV

| Substance | pKd [1] | pKd [2] | pKd (PfkA (Bacillus subtilis)) |
| --- | --- | --- | --- |
| PNPase (from UniProt P50849) | 6.60 | 8.30 | – |
| Enolase (from UniProt P37869) | – | 7.00 | 7.40 |
